Where “and” joins values, the source holds several entries; their conditions need not be identical. Identical values can stand only once.

For test [1], the target named is T1, DUF4297–HerA complex (Escherichia coli, UniProt A0ABF7PQ56).
T1 construct: gene CG692_10950; co-expressed in E. coli BL21(DE3) from pET28a, His tag at N-terminus of DUF4297; about 1 MDa complex of 12 DUF4297 and 6 HerA; with DUF4297 domain-containing protein (dsDNA endonuclease Cap4-like domain-containing anti-phage protein)
T1 sequence (A0ABF7PQ56 1-571): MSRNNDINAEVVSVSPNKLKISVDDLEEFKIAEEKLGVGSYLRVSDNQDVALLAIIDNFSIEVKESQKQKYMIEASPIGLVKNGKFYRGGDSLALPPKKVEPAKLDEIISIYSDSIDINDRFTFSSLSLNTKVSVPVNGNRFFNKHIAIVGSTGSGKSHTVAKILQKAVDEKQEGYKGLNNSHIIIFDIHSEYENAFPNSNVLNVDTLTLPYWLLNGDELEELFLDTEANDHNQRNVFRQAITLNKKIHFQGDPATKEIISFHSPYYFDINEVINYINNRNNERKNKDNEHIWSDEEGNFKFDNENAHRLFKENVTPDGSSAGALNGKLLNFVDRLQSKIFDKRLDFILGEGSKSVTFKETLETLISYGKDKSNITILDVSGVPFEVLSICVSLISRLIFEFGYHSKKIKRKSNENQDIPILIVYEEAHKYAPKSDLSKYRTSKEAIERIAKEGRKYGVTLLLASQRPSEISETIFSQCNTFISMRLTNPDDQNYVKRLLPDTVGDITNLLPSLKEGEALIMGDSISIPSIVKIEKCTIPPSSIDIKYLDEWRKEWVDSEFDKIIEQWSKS
T1 sequence (A0ABF7PQ57 1-394 partner): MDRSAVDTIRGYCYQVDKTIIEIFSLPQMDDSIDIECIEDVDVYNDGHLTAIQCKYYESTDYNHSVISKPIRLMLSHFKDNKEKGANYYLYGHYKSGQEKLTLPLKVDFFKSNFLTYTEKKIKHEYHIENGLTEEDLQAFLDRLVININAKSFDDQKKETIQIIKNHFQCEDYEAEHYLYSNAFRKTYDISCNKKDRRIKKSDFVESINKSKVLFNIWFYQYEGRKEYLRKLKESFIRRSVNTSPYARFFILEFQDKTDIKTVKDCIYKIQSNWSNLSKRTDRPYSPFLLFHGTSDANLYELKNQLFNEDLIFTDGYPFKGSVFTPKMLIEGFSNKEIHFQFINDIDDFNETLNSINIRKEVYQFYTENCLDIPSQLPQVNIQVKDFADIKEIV
The test can be described thus: cryo-EM structure. It is filed as binding. The conditions noted are these: with 59-bp dsDNA, 1 mM AMPPNP, 5 mM MgCl2; site at interface of RecA-like domains of adjacent HerA subunits; states 1 and 2.

Test [2] concerns the target T1, DUF4297–HerA complex. Briefly: phosphate release, modified Baginski method. It is filed as biochemical. The conditions noted are these: 5 nM complex, 20 mM Tris-HCl pH 8.0, 50 mM NaCl, 5 mM MgCl2, 5 mM DTT, 37 °C.
Test [3] deals with DUF4297. Briefly: AUC; sedimentation velocity, 55,000 rpm, 4 °C, ~1 mg/mL, 20 mM Tris-HCl pH 8.0, 500 mM NaCl.
Test [4] addresses DUF4297.
Test [5] deals with HerA. The test can be described thus: cryo-EM structure; co-expressed and purified DUF4297–HerA complex without nucleotide or DNA, ~1.0 mg/mL, C2 symmetry imposed, 2.87 Å.
Test [6] has as its target DUF4297. The description is as above.
The target of test [7] is HerA. The test can be described thus: cryo-EM structure; purified DUF4297–HerA complex with 1 mM AMPPNP, 5 mM MgCl2 and 59-bp dsDNA (1:1.2); state 1 at 2.73 Å and state 2 at 2.92 Å.
The target of test [8] is HerA. The test can be described thus: cryo-EM structure; HerA alone, ~1.0 mg/mL, 3.14 Å.

On to `Nc1ncnc2c1ncn2[C@@H]1O[C@H](COP(=O)(O)OP(=O)(O)NP(=O)(O)O)[C@@H](O)[C@H]1O` [AMPPNP], for which the cryo-EM structure result in test [1] is “three DNA-engaged subunits A–C bind ATP (AMPPNP in the structure)”.

Regarding `Nc1ncnc2c1ncn2[C@@H]1O[C@H](COP(=O)(O)OP(=O)(O)OP(=O)(O)O)[C@@H](O)[C@H]1O` [ATP], in test [2], the “phosphate release, modified Baginski method” value is recorded as “the DUF4297–HerA complex exhibits a high turnover rate under the same testing condition”.

As to DUF4297 (enzyme), the stoichiometry N (in general, the number of molecules, sites or subunits per partner or assembly) in test [3] is 2.

Regarding HerA (enzyme), the fold decrease in dsDNA nuclease activity of DUF4297 alone against the DUF4297–HerA complex in test [4] stood at 300 fold. In addition, the stoichiometry N in test [5] was 6; in test [7] it was 6; in test [8] it was 6 and 5. The stoichiometry N (DUF4297 per HerA) in test [6] amounted to 2.

Source of the values: PMC11291478, “Molecular and structural basis of an ATPase-nuclease dual-enzyme anti-phage defense complex” (Cell Research, 2024).
